Experimental data: patent US20230038638A1, “COMPLEMENT FACTOR I-RELATED COMPOSITIONS AND METHODS” (published 2023)
Substitutions are numbered along the chain they refer to.

What was measured:
[1] = target: soluble human C3b (human) (UniProt P01024)
[2] = target: T1, human C4b (human) (UniProt P0C0L5)
T1 sequence: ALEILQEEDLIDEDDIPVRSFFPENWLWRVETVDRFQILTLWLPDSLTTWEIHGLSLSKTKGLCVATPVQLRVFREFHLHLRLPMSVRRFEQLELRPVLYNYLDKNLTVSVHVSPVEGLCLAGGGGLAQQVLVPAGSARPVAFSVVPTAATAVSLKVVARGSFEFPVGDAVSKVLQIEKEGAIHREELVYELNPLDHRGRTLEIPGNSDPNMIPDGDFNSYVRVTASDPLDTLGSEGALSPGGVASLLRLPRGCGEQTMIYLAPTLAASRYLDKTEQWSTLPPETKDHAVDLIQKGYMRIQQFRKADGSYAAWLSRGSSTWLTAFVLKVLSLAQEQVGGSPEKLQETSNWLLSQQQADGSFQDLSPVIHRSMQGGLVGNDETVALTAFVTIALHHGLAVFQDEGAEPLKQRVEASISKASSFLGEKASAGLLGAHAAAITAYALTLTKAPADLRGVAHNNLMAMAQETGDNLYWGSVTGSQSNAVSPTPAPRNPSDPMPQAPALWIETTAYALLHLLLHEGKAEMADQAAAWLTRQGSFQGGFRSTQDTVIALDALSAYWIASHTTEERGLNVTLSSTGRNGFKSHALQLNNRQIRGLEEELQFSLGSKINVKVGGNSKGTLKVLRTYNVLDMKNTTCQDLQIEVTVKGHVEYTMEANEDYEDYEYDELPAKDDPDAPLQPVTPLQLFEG

[3] = target: soluble human C3b (human) (UniProt P01024); remark: listed apart in the source
[4] = target: T2, human C4b (human) (UniProt P0C0L4)
T2 sequence: T1 sequence with T151A, G317D, L364P, S365C, I368L, H369D, S420N, A451V, R454L, A530S

Sequence of CFI-HSA wild type (enzyme) (chain): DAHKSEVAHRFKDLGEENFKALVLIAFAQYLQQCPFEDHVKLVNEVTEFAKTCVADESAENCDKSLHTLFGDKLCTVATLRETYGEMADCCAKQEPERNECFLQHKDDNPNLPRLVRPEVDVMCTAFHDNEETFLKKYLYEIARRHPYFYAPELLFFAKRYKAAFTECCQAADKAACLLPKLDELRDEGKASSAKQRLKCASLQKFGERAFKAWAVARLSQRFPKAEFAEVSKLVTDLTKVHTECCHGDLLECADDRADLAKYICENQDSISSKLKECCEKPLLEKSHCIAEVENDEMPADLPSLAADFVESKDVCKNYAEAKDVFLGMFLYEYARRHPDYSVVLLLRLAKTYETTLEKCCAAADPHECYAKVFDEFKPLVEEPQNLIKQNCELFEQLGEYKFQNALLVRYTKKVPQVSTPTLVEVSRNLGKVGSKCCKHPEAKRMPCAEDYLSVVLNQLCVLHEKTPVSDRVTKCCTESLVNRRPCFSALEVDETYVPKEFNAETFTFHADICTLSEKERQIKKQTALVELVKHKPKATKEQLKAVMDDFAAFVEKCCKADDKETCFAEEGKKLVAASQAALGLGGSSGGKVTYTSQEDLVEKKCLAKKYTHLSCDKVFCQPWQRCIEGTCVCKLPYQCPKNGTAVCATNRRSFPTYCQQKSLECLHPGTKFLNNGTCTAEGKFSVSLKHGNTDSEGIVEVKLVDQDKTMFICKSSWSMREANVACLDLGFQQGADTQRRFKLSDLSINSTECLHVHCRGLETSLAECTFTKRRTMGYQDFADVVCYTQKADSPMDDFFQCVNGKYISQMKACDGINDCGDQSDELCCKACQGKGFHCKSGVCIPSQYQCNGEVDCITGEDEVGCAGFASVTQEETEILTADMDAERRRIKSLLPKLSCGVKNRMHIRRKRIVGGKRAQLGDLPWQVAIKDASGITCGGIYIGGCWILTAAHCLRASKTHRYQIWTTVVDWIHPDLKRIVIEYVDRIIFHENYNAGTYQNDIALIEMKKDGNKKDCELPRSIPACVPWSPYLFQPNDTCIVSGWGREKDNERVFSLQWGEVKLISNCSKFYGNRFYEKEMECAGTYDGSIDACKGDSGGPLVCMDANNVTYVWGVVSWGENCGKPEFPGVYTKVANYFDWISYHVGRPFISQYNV

Row | iC3b Screen Ref Fold (fold of CFI-HSA wild type) [1] | C4b Screen Ref Fold (fold of CFI-HSA wild type) [2] | iC3b EC50 [3] [nM] | C4c EC50 [4] [nM] | iC3b Screen Ref Fold (fold vs CFI-HSA wild type) [1] | C4b Screen Ref Fold (fold vs CFI-HSA wild type) [2] | C4c EC50 (nM) [4] [nM] | Substance
1 | 1.21 | 0.41 | 20.8 | > 1000 | – | – | – | CFI-HSA variant Y408L; E416A (enzyme)
2 | 1.5 | 5.33 | 4.1 | 43.3 | – | – | – | CFI-HSA variant E457G; D425K (enzyme)
3 | – | – | 15.6 | – | 0.98 | 0.92 | 373 | CFI-HSA variant E530D; F537K (enzyme)
4 | 1.46 | 4.37 | 4.7 | 7 | – | – | – | CFI-HSA variant E457G; N531G; N422K (enzyme)
5 | – | – | 144 | – | 0.12 | 0.01 | > 1000 | CFI-HSA variant K504L (enzyme)
6 | 2.48 | 4.35 | 3.1 | – | – | – | 59.3 | CFI-HSA variant E457G; D425R; E416A (enzyme)
7 | 1.39 | 4.34 | 9.6 | 27.9 | – | – | – | CFI-HSA variant Y408L; E457G; N531G; P535G; P558S (enzyme)
8 | – | – | 15.7 | – | 1.03 | 0.85 | > 1000 | CFI-HSA variant N476Q (enzyme)
9 | – | – | 27.1 | – | 0.59 | 0.48 | 399 | CFI-HSA variant Q467R (enzyme)
10 | – | – | 20.5 | – | 0.99 | 1.75 | 256 | CFI-HSA variant E457I (enzyme)
11 | – | – | 5.5 | – | 1.44 | 5.84 | 53.1 | CFI-HSA variant E457G; E461Q (enzyme)
12 | – | – | 16.9 | – | 1.43 | 4.68 | 113 | CFI-HSA variant E457A (enzyme)
13 | – | – | 53.6 | – | 0.54 | 3.84 | 229 | CFI-HSA variant K504H (enzyme)
14 | 1.19 | 4.7 | 5.2 | 51.9 | – | – | – | CFI-HSA variant N531G; D425K (enzyme)
15 | – | – | 28.4 | – | 1 | 1 | 299 | CFI-HSA wild type (enzyme)
16 | 0.6 | 1.21 | 11.7 | 205 | – | – | – | CFI-HSA variant Y408L; E457G; P535G (enzyme)
17 | 0.99 | 5.43 | 4.4 | 12.7 | – | – | – | CFI-HSA variant E457G; N531G; D425K (enzyme)
18 | – | – | > 500 | – | 0 | 0.09 | > 1000 | CFI-HSA variant D506G (enzyme)
19 | – | – | 7.9 | – | 1.53 | 5.6 | 53.4 | CFI-HSA variant N531G; P535A (enzyme)
20 | – | – | 31.2 | – | 1.07 | 0.93 | 810 | CFI-HSA variant A502S; K504Q; F537K (enzyme)
21 | 0.53 | 0.13 | 41.6 | – | – | – | > 1000 | CFI-HSA variant P535G; E416A (enzyme)
